T1: Human B7H6 (ACRO biosystems, cat. No. B76-H52H8) (human, UniProt Q68D85 25-262)
T1 construct: Bought antigen; also called B7H6 antigen; human B7H6 protein
T1 sequence (looked up): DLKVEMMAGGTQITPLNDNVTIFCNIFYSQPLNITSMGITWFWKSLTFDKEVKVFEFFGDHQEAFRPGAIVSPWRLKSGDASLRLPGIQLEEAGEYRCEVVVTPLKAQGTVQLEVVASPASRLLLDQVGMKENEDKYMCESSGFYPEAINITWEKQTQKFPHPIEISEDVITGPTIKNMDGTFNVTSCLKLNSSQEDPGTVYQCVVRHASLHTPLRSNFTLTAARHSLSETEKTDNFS


target: T1, Human B7H6 (ACRO biosystems, cat. No. …); experiment: ELISA, B7H6 coated, HRP anti-human IgG detection
Method: Human B7H6 (ACRO biosystems, cat. No. B76-H52H8) and human CD3 antigen (ACRO biosystems, cat. No. CDD-H52W1) were diluted to 2 μg/mL with coating buffer (35 mM NaHCO₃, 15 mM Na₂CO₃, pH 9.6), respectively. 100 μL of the diluted solution was added to each well of an ELISA plate at 4° C. overnight, and then washes with PBST (0.05% Tween 20-PBS, pH 7.2) 3 times. 300 μL of blocking buffer (1% BSA, 0.05% Tween20-PBS, pH 7.2) was added to the plate and allowed to stand at room temperature for 2 h, followed by washing with PBST three times. The corresponding bispecific antibody was added to each well and incubated at room temperature for 1 h, followed by washing with PBST three times. 100 μL of HRP-rabbit anti human IgG secondary antibody (Boster, cat. No. BA1070) diluted in blocking buffer was added to each well and incubated for 1 h at room temperature, followed by washing with PBST three times. TMB was added into each well. The plate was kept away from light at room temperature for 2-5 min, the reaction was stopped by adding 2 M sulfuric acid in each well, and finally OD450 values were read with microplate reader.

Row | Binder | binding result
1 | CD3xB7H6-2 bispecific antibody (bispecific antibody, human IgG1, L234A L235A, Heterodimer of two scFv-Fc units, knob-into-hole human IgG1 Fc; name formed by analogy with CD3xB7H6-14) chain 1: not shown chain 2: DIVLTQSPDSLAVSLGERATINCKASQSVDYDGDSYMNWYQQKPGQPPKLLIYAASTLHSGVPDRFSGSGSGTDFTLTISSLQAEDVAVYYCQQSKEDPRTFGQGTKLEIKGGGGSGGGGSGGGGSEVQLVQSGAEVKKPGASVKVSCKASGYTFTDYNMDWVRQAPGQGLEWIGDINPNNGGTLYNQKFRGRVTLTVDTSISTAYMELSRLRSDDTAVYYCARSEVFYGNYADYWGQGTTVTVSSEPKSCDKTHTCPPCPAPEAAGGPSVFLFPPKPKDTLMISRTPEVTCVVVDVSHEDPEVKFNWYVDGVEVHNAKTKPREEQYNSTYRVVSVLTVLHQDWLNGKEYKCKVSNKALPAPIEKTISKAKGQPREPQVCTLPPSRDELTKNQVSLSCAVKGFYPSDIAVEWESNGQPENNYKTTPPVLDSDGSFFLVSKLTVDKSRWQQGNVFSCSVMHEALHNHYTQKSLSLSPGK | binds
2 | CD3xB7H6-1 bispecific antibody (bispecific antibody, human IgG1, L234A L235A, Heterodimer of two scFv-Fc monovalent units, knob-into-hole human IgG1 Fc; name formed by analogy with the printed CD3xB7H6-14) chain 1: not shown chain 2: DIVLTQSPDSLAVSLGERATINCKASQSVDYDGDSYMNWYQQKPGQPPKLLIYAASTLHSGVPDRFSGSGSGTDFTLTISSLQAEDVAVYYCQQSKEDPRTFGQGTKLEIKGGGGSGGGGSGGGGSEVQLVQSGAEVKKPGASVKVSCKASGYTFTDYNMDWVRQAPGQGLEWMGDINPNNGGTLYNQKFRGRVTMTVDTSISTAYMELSRLRSDDTAVYYCARSEVFYGNYADYWGQGTTVTVSSEPKSCDKTHTCPPCPAPEAAGGPSVFLFPPKPKDTLMISRTPEVTCVVVDVSHEDPEVKFNWYVDGVEVHNAKTKPREEQYNSTYRVVSVLTVLHQDWLNGKEYKCKVSNKALPAPIEKTISKAKGQPREPQVCTLPPSRDELTKNQVSLSCAVKGFYPSDIAVEWESNGQPENNYKTTPPVLDSDGSFFLVSKLTVDKSRWQQGNVFSCSVMHEALHNHYTQKSLSLSPGK | binds
3 | CD3xB7H6-8 bispecific antibody (bispecific antibody, human IgG1, L234A L235A, Heterodimer of two scFv-Fc units, knob-into-hole human IgG1 Fc; name formed by analogy with CD3xB7H6-14) chain 1: not shown chain 2: DIVLTQSPDSLAVSLGERATINCKASQSVDYDGDSYMNWYQQKPGQPPKLLIYAASTLHSGIPDRFSGSGSGTDFTLTISSLQAEDVAVYYCQQSKEDPRTFGQGTKLEIKGGGGSGGGGSGGGGSEVQLVQSGAEVKKPGASVKVSCKASGYTFTDYNMDWVRQAPGKGLEWIGDINPNNGGTLYNQKFRGRVTLTVDKSISTAYMELSRLRSDDTAVYYCARSEVFYGNYADYWGQGTTVTVSSEPKSCDKTHTCPPCPAPEAAGGPSVFLFPPKPKDTLMISRTPEVTCVVVDVSHEDPEVKFNWYVDGVEVHNAKTKPREEQYNSTYRVVSVLTVLHQDWLNGKEYKCKVSNKALPAPIEKTISKAKGQPREPQVCTLPPSRDELTKNQVSLSCAVKGFYPSDIAVEWESNGQPENNYKTTPPVLDSDGSFFLVSKLTVDKSRWQQGNVFSCSVMHEALHNHYTQKSLSLSPGK | binds
4 | CD3xB7H6-4 bispecific antibody (bispecific antibody, human IgG1, L234A L235A, Heterodimer of two scFv-Fc units, knob-into-hole human IgG1 Fc; name formed by analogy with CD3xB7H6-14) chain 1: not shown chain 2: DIVLTQSPDSLAVSLGERATINCKASQSVDYDGDSYMNWYQQKPGQPPKLLIYAASTLHSGVPDRFSGSGSGTDFTLTISSLQAEDVAVYYCQQSKEDPRTFGQGTKLEIKGGGGSGGGGSGGGGSEVQLVQSGAEVKKPGASVKVSCKASGYTFTDYNMDWVRQAPGKGLEWIGDINPNNGGTLYNQKFRGRVTLTVDKSISTAYMELSRLRSDDTAVYYCARSEVFYGNYADYWGQGTTVTVSSEPKSCDKTHTCPPCPAPEAAGGPSVFLFPPKPKDTLMISRTPEVTCVVVDVSHEDPEVKFNWYVDGVEVHNAKTKPREEQYNSTYRVVSVLTVLHQDWLNGKEYKCKVSNKALPAPIEKTISKAKGQPREPQVCTLPPSRDELTKNQVSLSCAVKGFYPSDIAVEWESNGQPENNYKTTPPVLDSDGSFFLVSKLTVDKSRWQQGNVFSCSVMHEALHNHYTQKSLSLSPGK | binds
5 | CD3xB7H6-5 bispecific antibody (bispecific antibody, human IgG1, L234A L235A, Heterodimer of two scFv-Fc units, knob-into-hole human IgG1 Fc; name formed by analogy with CD3xB7H6-14) chain 1: not shown chain 2: DIVLTQSPDSLAVSLGERATINCKASQSVDYDGDSYMNWYQQKPGQPPKLLIYAASTLHSGIPDRFSGSGSGTDFTLTISSLQAEDVAVYYCQQSKEDPRTFGQGTKLEIKGGGGSGGGGSGGGGSEVQLVQSGAEVKKPGASVKVSCKASGYTFTDYNMDWVRQAPGQGLEWMGDINPNNGGTLYNQKFRGRVTMTVDTSISTAYMELSRLRSDDTAVYYCARSEVFYGNYADYWGQGTTVTVSSEPKSCDKTHTCPPCPAPEAAGGPSVFLFPPKPKDTLMISRTPEVTCVVVDVSHEDPEVKFNWYVDGVEVHNAKTKPREEQYNSTYRVVSVLTVLHQDWLNGKEYKCKVSNKALPAPIEKTISKAKGQPREPQVCTLPPSRDELTKNQVSLSCAVKGFYPSDIAVEWESNGQPENNYKTTPPVLDSDGSFFLVSKLTVDKSRWQQGNVFSCSVMHEALHNHYTQKSLSLSPGK | binds
6 | CD3xB7H6-7 bispecific antibody (bispecific antibody, human IgG1, L234A L235A, Heterodimer of two scFv-Fc units, knob-into-hole human IgG1 Fc; name formed by analogy with CD3xB7H6-14) chain 1: not shown chain 2: DIVLTQSPDSLAVSLGERATINCKASQSVDYDGDSYMNWYQQKPGQPPKLLIYAASTLHSGIPDRFSGSGSGTDFTLTISSLQAEDVAVYYCQQSKEDPRTFGQGTKLEIKGGGGSGGGGSGGGGSEVQLVQSGAEVKKPGASVKVSCKASGYTFTDYNMDWVRQAPGQGLEWIGDINPNNGGTLYNQKFRGRVTLTVDKSISTAYMELSRLRSDDTAVYYCARSEVFYGNYADYWGQGTTVTVSSEPKSCDKTHTCPPCPAPEAAGGPSVFLFPPKPKDTLMISRTPEVTCVVVDVSHEDPEVKFNWYVDGVEVHNAKTKPREEQYNSTYRVVSVLTVLHQDWLNGKEYKCKVSNKALPAPIEKTISKAKGQPREPQVCTLPPSRDELTKNQVSLSCAVKGFYPSDIAVEWESNGQPENNYKTTPPVLDSDGSFFLVSKLTVDKSRWQQGNVFSCSVMHEALHNHYTQKSLSLSPGK | binds
7 | CD3xB7H6-6 bispecific antibody (bispecific antibody, human IgG1, L234A L235A, Heterodimer of two scFv-Fc units, knob-into-hole human IgG1 Fc; name formed by analogy with CD3xB7H6-14) chain 1: not shown chain 2: DIVLTQSPDSLAVSLGERATINCKASQSVDYDGDSYMNWYQQKPGQPPKLLIYAASTLHSGIPDRFSGSGSGTDFTLTISSLQAEDVAVYYCQQSKEDPRTFGQGTKLEIKGGGGSGGGGSGGGGSEVQLVQSGAEVKKPGASVKVSCKASGYTFTDYNMDWVRQAPGQGLEWIGDINPNNGGTLYNQKFRGRVTLTVDTSISTAYMELSRLRSDDTAVYYCARSEVFYGNYADYWGQGTTVTVSSEPKSCDKTHTCPPCPAPEAAGGPSVFLFPPKPKDTLMISRTPEVTCVVVDVSHEDPEVKFNWYVDGVEVHNAKTKPREEQYNSTYRVVSVLTVLHQDWLNGKEYKCKVSNKALPAPIEKTISKAKGQPREPQVCTLPPSRDELTKNQVSLSCAVKGFYPSDIAVEWESNGQPENNYKTTPPVLDSDGSFFLVSKLTVDKSRWQQGNVFSCSVMHEALHNHYTQKSLSLSPGK | binds
8 | CD3xB7H6-3 bispecific antibody (bispecific antibody, human IgG1, L234A L235A, Heterodimer of two scFv-Fc units, knob-into-hole human IgG1 Fc; name formed by analogy with CD3xB7H6-14) chain 1: not shown chain 2: DIVLTQSPDSLAVSLGERATINCKASQSVDYDGDSYMNWYQQKPGQPPKLLIYAASTLHSGVPDRFSGSGSGTDFTLTISSLQAEDVAVYYCQQSKEDPRTFGQGTKLEIKGGGGSGGGGSGGGGSEVQLVQSGAEVKKPGASVKVSCKASGYTFTDYNMDWVRQAPGQGLEWIGDINPNNGGTLYNQKFRGRVTLTVDKSISTAYMELSRLRSDDTAVYYCARSEVFYGNYADYWGQGTTVTVSSEPKSCDKTHTCPPCPAPEAAGGPSVFLFPPKPKDTLMISRTPEVTCVVVDVSHEDPEVKFNWYVDGVEVHNAKTKPREEQYNSTYRVVSVLTVLHQDWLNGKEYKCKVSNKALPAPIEKTISKAKGQPREPQVCTLPPSRDELTKNQVSLSCAVKGFYPSDIAVEWESNGQPENNYKTTPPVLDSDGSFFLVSKLTVDKSRWQQGNVFSCSVMHEALHNHYTQKSLSLSPGK | binds
9 | CD3xB7H6-10 bispecific antibody (bispecific antibody, human IgG1, L234A L235A, Heterodimer of two scFv-Fc units, knob-into-hole human IgG1 Fc; name formed by analogy with CD3xB7H6-14) chain 1: not shown chain 2: DIVLTQTPLSLSVTPGQPASISCKASQSVDYDGDSYMNWYLQKPGQPPQLLIYAASTLHSGVPDRFSGSGSGTDFTLKISRVEAEDVGVYYCQQSKEDPRTFGQGTKLEIKGGGGSGGGGSGGGGSEVQLVQSGAEVKKPGASVKVSCKASGYTFTDYNMDWVRQAPGQGLEWIGDINPNNGGTLYNQKFRGRVTLTVDTSISTAYMELSRLRSDDTAVYYCARSEVFYGNYADYWGQGTTVTVSSEPKSCDKTHTCPPCPAPEAAGGPSVFLFPPKPKDTLMISRTPEVTCVVVDVSHEDPEVKFNWYVDGVEVHNAKTKPREEQYNSTYRVVSVLTVLHQDWLNGKEYKCKVSNKALPAPIEKTISKAKGQPREPQVCTLPPSRDELTKNQVSLSCAVKGFYPSDIAVEWESNGQPENNYKTTPPVLDSDGSFFLVSKLTVDKSRWQQGNVFSCSVMHEALHNHYTQKSLSLSPGK | binds
10 | CD3xB7H6-9 bispecific antibody (bispecific antibody, human IgG1, L234A L235A, Heterodimer of two scFv-Fc units, knob-into-hole human IgG1 Fc; name formed by analogy with CD3xB7H6-14) chain 1: not shown chain 2: DIVLTQTPLSLSVTPGQPASISCKASQSVDYDGDSYMNWYLQKPGQPPQLLIYAASTLHSGVPDRFSGSGSGTDFTLKISRVEAEDVGVYYCQQSKEDPRTFGQGTKLEIKGGGGSGGGGSGGGGSEVQLVQSGAEVKKPGASVKVSCKASGYTFTDYNMDWVRQAPGQGLEWMGDINPNNGGTLYNQKFRGRVTMTVDTSISTAYMELSRLRSDDTAVYYCARSEVFYGNYADYWGQGTTVTVSSEPKSCDKTHTCPPCPAPEAAGGPSVFLFPPKPKDTLMISRTPEVTCVVVDVSHEDPEVKFNWYVDGVEVHNAKTKPREEQYNSTYRVVSVLTVLHQDWLNGKEYKCKVSNKALPAPIEKTISKAKGQPREPQVCTLPPSRDELTKNQVSLSCAVKGFYPSDIAVEWESNGQPENNYKTTPPVLDSDGSFFLVSKLTVDKSRWQQGNVFSCSVMHEALHNHYTQKSLSLSPGK | binds
